{"source": "patent US10323078B2", "about": "“Isolated peptides and fragments thereof from fibrinogen for use as drugs, particularly in skin inflammatory diseases” (Universite Paris Descartes, priority 2015, dated 2019)", "key": {"P. acnes 6919 strain": {"system": "P. acnes 6919 strain", "experiment": "Adhesion assay, biotinylated P. acnes binding to HaCaT keratinocytes", "type": "cell-based, Propionibacterium acnes", "details": "P. acnes 6919 pre-treated with whole fibrinogen 0.01 to 0.5 mM, 1 h at 37° C.", "protocol": "FIG. 12: Dose-dependent inhibition of P. acnes binding to keratinocytes. Biotinylated P. acnes 6919 strain at concentrations adjusted to 0.1 of absorbance at 600 nm was pre-treated with whole human (dark gray bar) and bovine (light gray bar) fibrinogen at the concentrations ranging from 0.01 to 0.5 mM and incubated 1 h at 37° C. with the human HaCaT keratinocyte cell line. After removal of unbound bacteria, adhesion activity was detected at 410 nm. Data are means±S.D. of three separate experiments. Statistical significance is indicated by * (P<0.05), ** (P<0.01), *** (P<0.001), and **** (P<0.0001), respectively.\nThe bacterial suspension was adjusted at 600 nm to the desired concentration, pretreated with peptides Fg1 and Fg2 at the final concentration ranging from 0.87 to 7 μM for 1 h at 37° C. and deposited on the previously saturated cells with a solution of PBS SVF 2% for 2 h. After incubation for 1 h at 37° C., unbound bacteria are removed by 3 washes with PBS and fixed bacteria are detected by a streptavidin-peroxidase solution of 0.5 μg/ml for 30 min.\nWhole P. acnes bacteria are labelled by biotinylation, pre-treated or not with the peptides and contacted with the various cell lines. After removal of the unfixed bacteria, the adhesion activity was measured spectrophotometrically by using the streptavidin-peroxidase conjugate and a chromogenic substrate. […]"}, "ThP1 cells [1]": {"system": "ThP1 cells", "experiment": "O2°− production by P. acnes-stimulated ThP1", "type": "cell-based, human", "details": "0.87 to 7 μM", "protocol": "(§1) For experiences of stimulation with P. acnes, cells were incubated with the P. acnes suspension adjusted at the appropriate concentration, pre-treated for 1 h at 37° C. or not with fibrinogen recombinant peptides Fg1 and Fg2 at the concentrations 0.87, 1.75, 3.5 or 7 μM for the desired period of time at 37° C. in 5% CO2.\n(§2) All cells lines (5·10^4 to 10^5 cells/well) were seeded in 96-well plates (Corning Costar, Brumath, France) and treated as previously described. After stimulation, cells were washed three times in PBS and incubated with 100 μl per wells of 5 μM DHE (for determination of O2^●−) or 5 μM H2-DCFDA (for determination of H2O2) for 30 min as described previously and fluorescence intensity was recorded every hour over a period of 5 h. Fluorescence excitation/emission maxima were for DHE: 480/610 nm and for H2-DCFDA: 507/525 nm. At the end of the experiment, the number of adherent cells was evaluated by the crystal violet assay as described below. O2^●−, and H2O2 were assayed by spectrofluorimetry on a Fusion spectrofluorimeter (PackardBell, Paris, France). Levels of ROS were calculated in each sample as follows: reactive oxygen species rate (arbitrary units/min/10^6 cells)=(fluorescence intensity [arbitrary units] at T5h—fluorescence intensity [arbitrary units] at To/300 minutes/number of adherent cells as measured by the crystal violet assay, and were expressed as arbitrary unit (A.U.).\n(§3) To assess the efficacy of Fg1 recombinant peptide, the production of O2^∘− and H2O2 by HaCaT cells NHDK, THP-1, MRC5 and HDF stimulated by pretreated P. acnes strains 6919, RON and PIE was measured. The amount of ROS produced was compared to that produced by the stimulated cells with untreated bacteria. Production baseline was obtained by measuring ROS on unstimulated cells. The production of IL-1ß, IL-8, IL-12 and TNF-α was also measured in all conditions cited above. The measurement of the production of ROS is performed by spectrofluorimetry in the presence of specific fluorochromes directly on the monolayer cell. Measurement of cytokine production was performed in parallel on the cell culture supernatant.\n(§4) Two sets of experiments were implemented: 1) The cells were stimulated (18 h at 37° C.) by P. acnes strains previously pretreated with Fg1 and Fg2 peptides at the final concentrations ranging from 0.87 to 7 μM for 1 h at 37° C.; and 2) The cells were pretreated first with Fg1 and Fg2 peptides at the final concentrations ranging from 0.87 to 7 μM for 24 h at 37° C. and stimulated (18 h at 37° C.) by P. acnes strains."}, "ThP1 cells [2]": {"system": "ThP1 cells", "experiment": "IL-1β production by P. acnes-stimulated ThP1 (ELISA)", "type": "cell-based, human", "details": "for Inhibition of Interleukine 1 beta (IL-1β) production: ThP1, 0.87 to 7 μM", "protocol": "as §1\n(§5) Human IL-1ß, IL-8, IL-12, hBD-2, and TNF-α protein concentration was measured in the supernatants of stimulated cells using various ELISA Set kits (Ready-Set-Go kit from eBioscience for acne experiments, and for psoriasis experiments the Duo set IL-8 kit from R&D Systems and the BD-2 Human Development (hBD-2) from Peprotech) according to the manufacturer's instructions. We used serial dilutions of recombinant human IL-1ß, IL-8, IL-12 and TNF-α for standard curve. The optical density was determined at 450 nm at a wavelength correction of 540 nm.\nas §3, §4"}, "NHDK cells": {"system": "NHDK cells", "experiment": "IL-8 production by P. acnes-stimulated NHDK (ELISA)", "type": "cell-based, human", "details": "0.87 to 7 μM", "protocol": "as §1, §5, §3, §4"}, "ThP1 cells [3]": {"system": "ThP1 cells", "experiment": "TNF-α production by P. acnes-stimulated ThP1 (ELISA)", "type": "cell-based, human", "details": "0.87 to 7 μM", "protocol": "as §1, §5, §3, §4"}, "[4]": {"system": "HaCaT, NHDK, THP-1, MRC5 and HDF", "experiment": "O2°− production by cells stimulated with P. acnes, overall statement for the five cell lines", "type": "cell-based, human", "details": "pretreatment of P. acnes strains; five cell lines and three strains tested", "protocol": "as §1\nas §2, with “O2^●−, and H2O2 were assayed by spectrofluorimetry on a Fusion spectrofluorimeter (PackardBell, Paris, France).” left out, “(A.U.). […]” for “(A.U.).”"}, "[5]": {"details": "P. acnes 6919, set I, bacteria first pretreated"}, "[6]": {"details": "P. acnes 6919, set II, cells first pretreated"}, "[7]": {"details": "P. acnes PIE, set I, bacteria first pretreated"}, "[8]": {"details": "P. acnes PIE, set II, cells first pretreated"}, "[9]": {"details": "P. acnes RON, set I, bacteria first pretreated"}, "[10]": {"details": "P. acnes RON, set II, cells first pretreated"}}, "data": [{"molecule": "human fibrinogen: purified commercial human fibrinogen (Sigma), glycoprotein hexamer of Aα, Bß and γ chains", "values": [{"measurement": "Inhibition of adhesion of P. acnes to keratinocytes", "setting": "P. acnes 6919 strain", "value": "able to inhibit the adhesion"}]}, {"molecule": "MKRMVSWSFHKLKTMKHLLLLLLCVFLVKSQGVNDNEEGFFSARGHRPLDKKREEAPSLRPAPPPISGGGYRARPAKAAATQKKVERKAPDAGGCLHADPDLGVLC (protein, GST fusion; fragment Fg1, fragment of Bß chain of human fibrinogen having 106 amino acids; recombinant GST-fused peptide expressed in E. coli) MKRMVSWSFHKLKTMKHLLLLLLCVFLVKSQGVNDNEEGFFSARGHRPLDKKREEAPSLRPAPPPISGGGRARPAKAAATQKKVERKAPDAGGCLHADPDLGVLCMKRMVSWSFHKLKTMKHLLLLLLCVFLVKSQGVNDNEEGFFSARGHRPLDKKREEAPSLRPAPPPISGGGYRARPAKAAATQKKVERKAPDAGGCLHADPDLGVLC", "values": [{"measurement": "Inhibition of Superoxide anion (O2°−) production", "setting": "ThP1 cells [1]; [5]", "value": "pos"}, {"measurement": "Inhibition of Superoxide anion (O2°−) production", "setting": "ThP1 cells [1]; [6]", "value": "pos"}, {"measurement": "Inhibition of Superoxide anion (O2°−) production", "setting": "ThP1 cells [1]; [7]", "value": "pos"}, {"measurement": "Inhibition of Superoxide anion (O2°−) production", "setting": "ThP1 cells [1]; [8]", "value": "pos"}, {"measurement": "Inhibition of Superoxide anion (O2°−) production", "setting": "ThP1 cells [1]; [9]", "value": "pos"}, {"measurement": "Inhibition of Superoxide anion (O2°−) production", "setting": "ThP1 cells [1]; [10]", "value": "pos"}, {"measurement": "Inhibition of Interleukine 1 beta (IL-1β) production", "setting": "ThP1 cells [2]; [5]", "value": "NO (Inhibition NO: Fg1 has no effect on the production of inflammatory molecule)"}, {"measurement": "Inhibition of Interleukine 1 beta (IL-1β) production", "setting": "ThP1 cells [2]; [6]", "value": "NO (Inhibition NO: Fg1 has no effect on the production of inflammatory molecule)"}, {"measurement": "Inhibition of Interleukine 1 beta (IL-1β) production", "setting": "ThP1 cells [2]; [7]", "value": "NO (Inhibition NO: Fg1 has no effect on the production of inflammatory molecule)"}, {"measurement": "Inhibition of Interleukine 1 beta (IL-1β) production", "setting": "ThP1 cells [2]; [8]", "value": "NO (Inhibition NO: Fg1 has no effect on the production of inflammatory molecule)"}, {"measurement": "Inhibition of Interleukine 1 beta (IL-1β) production", "setting": "ThP1 cells [2]; [9]", "value": "NO (Inhibition NO: Fg1 has no effect on the production of inflammatory molecule)"}, {"measurement": "Inhibition of Interleukine 1 beta (IL-1β) production", "setting": "ThP1 cells [2]; [10]", "value": "NO (Inhibition NO: Fg1 has no effect on the production of inflammatory molecule)"}, {"measurement": "Effect on the production of IL-1ß", "setting": "ThP1 cells [2]; whatever the strain of P. acnes used, production effective only for monocytes", "value": "no effect"}, {"measurement": "Inhibition of Interleukine 8 (IL-8) production", "setting": "NHDK cells; [5]", "value": "pos"}, {"measurement": "Inhibition of Interleukine 8 (IL-8) production", "setting": "NHDK cells; [6]", "value": "pos"}, {"measurement": "Inhibition of Interleukine 8 (IL-8) production", "setting": "NHDK cells; [7]", "value": "pos"}, {"measurement": "Inhibition of Interleukine 8 (IL-8) production", "setting": "NHDK cells; [8]", "value": "pos"}, {"measurement": "Inhibition of Interleukine 8 (IL-8) production", "setting": "NHDK cells; [9]", "value": "pos"}, {"measurement": "Inhibition of Interleukine 8 (IL-8) production", "setting": "NHDK cells; [10]", "value": "pos"}, {"measurement": "Inhibition of Interleukine TNF alpha (TNF-α) production", "setting": "ThP1 cells [3]; [5]", "value": "pos"}, {"measurement": "Inhibition of Interleukine TNF alpha (TNF-α) production", "setting": "ThP1 cells [3]; [6]", "value": "pos"}, {"measurement": "Inhibition of Interleukine TNF alpha (TNF-α) production", "setting": "ThP1 cells [3]; [7]", "value": "pos"}, {"measurement": "Inhibition of Interleukine TNF alpha (TNF-α) production", "setting": "ThP1 cells [3]; [8]", "value": "pos"}, {"measurement": "Inhibition of Interleukine TNF alpha (TNF-α) production", "setting": "ThP1 cells [3]; [9]", "value": "pos"}, {"measurement": "Inhibition of Interleukine TNF alpha (TNF-α) production", "setting": "ThP1 cells [3]; [10]", "value": "pos"}, {"measurement": "Inhibition of O2°− production", "setting": "[4]", "value": "in a dose-dependent manner"}]}]}
